Data reported in the supplement of paper PMC10126150.
± gives the standard deviation of the averaged measurements.

System: ATP
Assay: switch fluorescence ratio, 500 uM ATP over buffer (Cy3 cluster intensity, sum of 5 cycles each) (fold (ratio)); higher = stronger signal-on switching upon ATP binding; sequences stand for … in TCGTCGGCAGCGTCAGATGTGTATAAGAGACAGTTTTTTTTTTTTTTTTTTTTTTTTT…TC
Details: aptamer strand: ATP DNA aptamer (quencher-CACCTGGGGGAGTATTGCGGAGGAAGG + anchor), 100 nM annealed; ATP concentration: 500 uM
In short: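 Between each of five buffer/ATP cycles, the flow-cell was stripped with NaOH and re-annealed. Each cycle imaged Cy3-labelled switching-strand clusters, annealed to 100 nM quencher-labelled ATP aptamer on a modified Illumina MiSeq flow-cell, first in selection buffer and then after 15 min with 500 uM ATP at 22 °C. The fluorescence ratio is summed target-cycle over summed buffer-cycle Cy3 intensity per cluster, averaged per switch-domain sequence, with clusters outside 100-1000 RFU excluded.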
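Further: ATP exposure 15 min at 22 °C before imaging.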

Row | Sequence | switch fluorescence ratio
1 | ACCGACCGGG | 1.074 ± 0.005
2 | ACCGCACGGA | 1.55 ± 0.29
3 | ACCGCGGTCG | 0.974 ± 0.049
4 | ACCGGACATG | 1.07 ± 0.034
5 | ACCGGAGGGG | 1.17 ± 0.26
6 | ACCGGAGTTC | 1.23 ± 0.014
7 | ACCGGCACAT | 1.273 ± 0.0092
8 | ACCGGCCAGC | 1.002 ± 0.004
9 | ACCGGCCTGG | 1 ± 0.025
10 | ACCGGGAAAG | 1.062 ± 0.0096
11 | ACCGGGATGG | 0.994 ± 0.024
12 | ACCGGGGGGG | 1 ± 0.035
13 | ACCGGTAAAT | 1.01 ± 0.037
14 | ACCGTAGGGG | 0.973 ± 0.016
15 | ACCGTGAGGC | 1.02 ± 0.088
16 | ACCGTGTGTG | 0.995 ± 0.046
17 | ACCGTTTGGT | 0.999 ± 0.038
18 | ACCGTTTTGT | 1.02 ± 0.019
19 | ACCTACGAGT | 1.37 ± 0.044
20 | ACCTAGCGCA | 1.33 ± 0.045
21 | ACCTAGTTTT | 1.011 ± 0.0078
22 | ACCTATTCGT | 1.054 ± 0.0047
23 | ACCTGAATAG | 1.14 ± 0.11
24 | ACCTGGTGGG | 0.984 ± 0.028
25 | ACCTTAGTGC | 1.1 ± 0.048

Row | Sequence | switch fluorescence ratio
26 | ACGAAAGGTT | 1.034 ± 0.0089
27 | ACGAAATAGT | 1.183 ± 0.0065
28 | ACGAACGATC | 1.35 ± 0.022
29 | ACGAAGAAGT | 1.012 ± 0.0048
30 | ACGAAGGATA | 1.04 ± 0.014
31 | ACGAAGGTCT | 0.998 ± 0.012
32 | ACGAAGTTAG | 0.998 ± 0.015
33 | ACGACCGTTG | 1.02 ± 0.061
34 | ACGACGGTAG | 1.02 ± 0.029
35 | ACGAGAGGGT | 0.973 ± 0.023
36 | ACGAGGACAG | 1.06 ± 0.0025
37 | ACGAGGGAAA | 2.12 ± 1.6
38 | ACGAGGGTCA | 1.01 ± 0.06
39 | ACGAGGGTGG | 1.065 ± 0.0084
40 | ACGAGGGTTG | 1.01 ± 0.026
41 | ACGAGTAGGC | 0.986 ± 0.021
42 | ACGAGTTAGT | 0.9933 ± 0.0045
43 | ACGATCCACG | 1.04 ± 0.045
44 | ACGATCGGCT | 1.06 ± 0.2
45 | ACGATGAGGA | 0.982 ± 0.07
46 | ACGATGTGCT | 0.982 ± 0.015
47 | ACGATTATTC | 1.07 ± 0.039
48 | ACGATTTAAG | 1.03 ± 0.05
49 | ACGCATTATT | 1.62 ± 0.051
50 | ACGCATTCAA | 1.236 ± 0.0039

Row | Sequence | switch fluorescence ratio
51 | ACGCATTGGT | 1.188 ± 0.0086
52 | ACGCCCACGT | 1.22 ± 0.038
53 | ACGCCCACTA | 1.38 ± 0.1
54 | ACGCCCTGGC | 1.04 ± 0.045
55 | ACGCGACATT | 1.12 ± 0.039
56 | ACGCGACGG | 1.13 ± 0.018
57 | ACGCGATATG | 1.253 ± 0.01
58 | ACGCGCCGGG | 1.063 ± 0.0039
59 | ACGCGGACAC | 1.22 ± 0.065
60 | ACGCGGGACA | 1.04 ± 0.014
61 | ACGCGGGGGT | 1.07 ± 0.069
62 | ACGCGTCGGC | 1.06 ± 0.013
63 | ACGCTAAATA | 1.26 ± 0.03
64 | ACGCTACATT | 1.39 ± 0.031
65 | ACGCTCCTGG | 1.15 ± 0.034
66 | ACGCTGCCAG | 1.04 ± 0.02
67 | ACGCTTAGAC | 1.66 ± 0.24
68 | ACGCTTGTGC | 1.08 ± 0.042
69 | ACGGAACAGC | 1.11 ± 0.13
70 | ACGGAAGGGA | 0.991 ± 0.036
71 | ACGGAAGGGT | 1.04 ± 0.043
72 | ACGGAAGGTT | 1.03 ± 0.043
73 | ACGGAATATT | 1.171 ± 0.0019
74 | ACGGACGGGG | 1.11 ± 0.036
75 | ACGGAGGGCT | 1.02 ± 0.015

Row | Sequence | switch fluorescence ratio
76 | ACGGAGTTAC | 1.84 ± 0.18
77 | ACGGCAAGGG | 1.15 ± 0.063
78 | ACGGCACTCG | 1.4 ± 0.1
79 | ACGGCAGAGG | 1.09 ± 0.02
80 | ACGGCATTAA | 1.165 ± 0.0043
81 | ACGGCATTGC | 1.19 ± 0.037
82 | ACGGCCACTG | 1.07 ± 0.019
83 | ACGGCCGGGA | 1.02 ± 0.026
84 | ACGGCCTGGG | 1.03 ± 0.03
85 | ACGGCGAGGG | 1.02 ± 0.039
86 | ACGGCTTAGG | 1.03 ± 0.034
87 | ACGGGACGGC | 1.04 ± 0.14
88 | ACGGGACTAG | 1.02 ± 0.099
89 | ACGGGAGGGG | 1.04 ± 0.048
90 | ACGGGATG | 1.039 ± 0.0044
91 | ACGGGATGGG | 1.062 ± 0.01
92 | ACGGGCAGGG | 1.03 ± 0.041
93 | ACGGGCCTTG | 0.987 ± 0.0063
94 | ACGGGCTGGG | 1.1 ± 0.02
95 | ACGGGCTGTG | 1.01 ± 0.054
96 | ACGGGCTTCG | 1.05 ± 0.049
97 | ACGGGGACGG | 1.03 ± 0.042
98 | ACGGGGGAAC | 1.046 ± 0.0071
99 | ACGGGGGCCT | 1.014 ± 0.0045
100 | ACGGGGGGAG | 1.01 ± 0.035

Row | Sequence | switch fluorescence ratio
101 | ACGGGGGGCG | 0.984 ± 0.052
102 | ACGGGGGGCT | 0.995 ± 0.057
103 | ACGGGGGTAG | 0.989 ± 0.022
104 | ACGGGGGTTC | 1.01 ± 0.012
105 | ACGGGGTAAA | 1.004 ± 0.009
106 | ACGGGGTCAC | 1.026 ± 0.0017
107 | ACGGGGTGCA | 0.99 ± 0.017
108 | ACGGGGTGTT | 1 ± 0.04
109 | ACGGGGTTGC | 1.01 ± 0.017
110 | ACGGGGTTGG | 1.03 ± 0.024
111 | ACGGGTAATC | 1.071 ± 0.0095
112 | ACGGGTAGAC | 1.0808 ± 0.001
113 | ACGGGTAGCA | 0.999 ± 0.016
114 | ACGGGTGGCA | 0.986 ± 0.019
115 | ACGGGTGGGT | 1.08 ± 0.15
116 | ACGGGTTGAG | 1.03 ± 0.029
117 | ACGGTAGAAA | 1.01 ± 0.012
118 | ACGGTGAGGG | 1.02 ± 0.026
119 | ACGGTTAAGG | 1.03 ± 0.019
120 | ACGGTTCGGA | 1.02 ± 0.019
121 | ACGGTTGTGC | 1.01 ± 0.04
122 | ACGGTTGTTC | 1.027 ± 0.005
123 | ACGTAAAGAC | 1.17 ± 0.23
124 | ACGTACTTGA | 1.52 ± 0.085
125 | ACGTAGTTTC | 1.05 ± 0.023

Row | Sequence | switch fluorescence ratio
126 | ACGTATAGAG | 0.991 ± 0.042
127 | ACGTATCCGG | 0.9932 ± 0.0067
128 | ACGTCAAAAC | 2.91 ± 0.41
129 | ACGTCAGTCA | 0.976 ± 0.023
130 | ACGTCGGAG | 0.995 ± 0.046
131 | ACGTCGGGTG | 1.25 ± 0.15
132 | ACGTCGTAGG | 1.05 ± 0.016
133 | ACGTCTTTGG | 1.02 ± 0.043
134 | ACGTGACGGG | 1.07 ± 0.029
135 | ACGTGGAAGC | 1.04 ± 0.043
136 | ACGTGTTGGC | 1.02 ± 0.052
137 | ACGTTAAGTT | 1.1 ± 0.029
138 | ACGTTAGTCG | 0.9687 ± 0.0095
139 | ACGTTGATGG | 0.9882 ± 0.0095
140 | ACGTTGCCAG | 0.963 ± 0.019
141 | ACGTTTGCG | 0.98 ± 0.04
142 | ACGTTTGGAT | 1.02 ± 0.027
143 | ACGTTTGTCC | 1.03 ± 0.022
144 | ACGTTTTTTT | 0.988 ± 0.035
145 | ACTAAAGGGG | 1.04 ± 0.021
146 | ACTAACTAAT | 1.06 ± 0.056
147 | ACTAAGTAAC | 1.04 ± 0.037
148 | ACTAAGTCTG | 1.02 ± 0.045
149 | ACTAATGGTT | 1.03 ± 0.022
150 | ACTACCTACA | 1.364 ± 0.0065

Row | Sequence | switch fluorescence ratio
151 | ACTACGTCGG | 1.08 ± 0.044
152 | ACTACTGCTG | 1.05 ± 0.0044
153 | ACTACTGGTT | 1.03 ± 0.03
154 | ACTAGCTTGT | 1.04 ± 0.026
155 | ACTAGGATGG | 0.99 ± 0.026
156 | ACTAGGTCCG | 1.005 ± 0.0016
157 | ACTAGTCACG | 1.072 ± 0.0093
158 | ACTATATAAT | 1.08 ± 0.014
159 | ACTATCGGGA | 1.02 ± 0.037
160 | ACTATGAAAA | 1.037 ± 0.0011
161 | ACTATGGCCC | 1.03 ± 0.017
162 | ACTATGGCGG | 1.03 ± 0.032
163 | ACTATGGTAA | 0.9704 ± 0.008
164 | ACTATTAATC | 1 ± 0.02
165 | ACTATTGCGG | 1.01 ± 0.025
166 | ACTATTTTTG | 0.9745 ± 0.0067
167 | ACTCACGGAG | 1.16 ± 0.036
168 | ACTCAGATTG | 1.05 ± 0.056
169 | ACTCATAATT | 1.0222 ± 0.00042
170 | ACTCATGATG | 0.99 ± 0.024
171 | ACTCCGTCTT | 1.441 ± 0.0027
172 | ACTCCTCTTT | 1.093 ± 0.0093
173 | ACTCCTGTAA | 1.13 ± 0.11
174 | ACTCCTTGCT | 1.24 ± 0.018
175 | ACTCGAAGGG | 1.02 ± 0.042

Row | Sequence | switch fluorescence ratio
176 | ACTCGACCTT | 1.21 ± 0.15
177 | ACTCGCAGGG | 1.073 ± 0.0016
178 | ACTCGGAATT | 1.12 ± 0.019
179 | ACTCTAAAAA | 1.05 ± 0.012
180 | ACTCTCGAGG | 1.24 ± 0.34
181 | ACTCTGGCGT | 1.08 ± 0.024
182 | ACTCTGGGGG | 1.07 ± 0.092
183 | ACTCTTGCGG | 1.01 ± 0.016
184 | ACTCTTGTTT | 1.03 ± 0.014
185 | ACTGACAGCG | 1.0189 ± 0.00036
186 | ACTGAGGAAA | 1.01 ± 0.046
187 | ACTGAGGTAA | 0.95 ± 0.043
188 | ACTGAGTTTG | 1 ± 0.016
189 | ACTGATCAGA | 0.99427 ± 0.00038
190 | ACTGATCGCG | 1.02 ± 0.034
191 | ACTGATGGTA | 1.02 ± 0.025
192 | ACTGATGTAC | 1.09 ± 0.012
193 | ACTGATTTTG | 1.01 ± 0.029
194 | ACTGCCCGGC | 1.1 ± 0.12
195 | ACTGGACGAT | 1.19 ± 0.015
196 | ACTGGGATGT | 1.02 ± 0.0043
197 | ACTGGGGACG | 1.02 ± 0.053
198 | ACTGGGGGGC | 1.05 ± 0.016
199 | ACTGGGGGGT | 0.994 ± 0.02
200 | ACTGGGGGTT | 0.994 ± 0.029
